Changes are numbered by the printed parent chain.
B1: CS2 (Fc fusion)
VH: EVQLVQSGAEVKKPGASVKVSCKASGGTFSSYAISWVRQAPGQGLEWMGGIIPIFGTANYAQKFQGRVTITADESTSTAYMELSSLRSEDTAVYYCARGSGDYGMDVWGQGTTVTVSS
VL: QSALTQPASVSGSPGQSITISCTGTSSDVGGYNYVSWYQQHPGKAPKLVISEVRNRPSGVSNRFSGSKSGNTASLTISGLQAEDEADYYCSSYTTRDTRVFGGGTQLTVL
notes: also called 抗体CS2
B2: CS7 (Fc fusion)
VH: B1 VH with A16S, F55L, T57I, E74K, G104S, T113L
VL: B1 VL with T5A, S36A, V49M, S51Y, R54S, Q106K
notes: also called 抗体CS7
B3: CS3 (Fc fusion)
VH: B1 VH with A16S, E74K
VL: B1 VL with G31L, V49M, I50V, R54S, Q106K, L107V
notes: also called 抗体CS3
B4: CS1 (Fc fusion)
VH: QVQLQQSGAEVKKPGSSVKVSCKASGGTFSSYAISWVRQAPGQGLEWMGGIIPIFGTANYAQKFQGRVTITADESTSTAYMELSSLRSEDTAVYYCARDRGVGRGYSYGFLPLDYWGQGTLVTVSS
VL: DIQMTQSPLSLPATPGEPASISCRSSQSLLHSDGYSYLHWYVQKPGQSPQLLISADSNRASGVPGRFSGSGSGTDFTLKISRVEAEDVGVYYCMQALQTPWTFGQGTKLDIK
notes: also called 抗体CS1

What follows are binders tested against T1, 新型冠状病毒(2019-nCoV)Spike蛋白 (全长三聚体S蛋白) (新型冠状病毒(2019-nCoV), UniProt P0DTC2 16-1213) (assay: Octet Blitz (BLI), scFv-Fc, apparent affinity).
T1 construct: also called 病毒S蛋白

Row | Binder | Kd
1 | B1 | 2.1 nM
2 | B2 | 12.3 nM
3 | B3 | 23.2 nM
4 | B4 | 1.2 nM

Reference: patent CN113683687A (EXCYTE BEIJING PHARMACEUTICAL TECH DEVELOPMENT CO LTD, dated 2021)
